Assay results as given in publication PMC3397958, “Molecular Characterization of NAD^+-Dependent DNA Ligase from Wolbachia Endosymbiont of Lymphatic Filarial Parasite Brugia malayi” (PLoS ONE, 2012).

Substrate: NC(=O)c1ccc[n+]([C@@H]2O[C@H](COP(=O)(O)OP(=O)(O)OC[C@H]3O[C@@H](n4cnc5c(N)ncnc54)[C@H](O)[C@@H]3O)[C@@H](O)[C@H]2O)c1
Assay: nick closing activity; fluorescein-labelled oligonucleotide ligated to biotinylated oligonucleotide on streptavidin plate
Type: biochemical, Wolbachia endosymbiont of Brugia malayi
Settings: nicked DNA duplex substrate, 20 mM Tris-HCl pH 8.0, 10 mM MgCl2, 10 mM (NH4)2SO4, 1.2 mM EDTA, 25 °C, 5 nM enzyme, NAD+ 0-30 µM, varied: cofactor

B1: wBm-LigA (NAD+-dependent DNA ligase of Wolbachia endosymbiont of Brugia malayi) (Wolbachia endosymbiont strain TRS of Brugia malayi) (protein)
chain: MADLEKMIEEFTKLRDQISYHDVLYHQKSKPEIADAEYDKLKQKLVEMEGQLPGACVTQDGVGAAPDEKFSKIKHREPMLSLENAYDEQGVERFLSRIKRFLIEEEIEVFCEPKIDGLSFSAVYEDGRFVKAATRGDGFIGEDVTRNVATIKGFPRFLQDVQDRLEVRGEIYINNSDFLKLNKDNEFANPRNAAAGSLKQLDVSITANRPLKYFAYSLIGGKEKSQSEVLNRLESLGFCVNEHRSLTNNLSGMLEFYNKVYNCRYSLDYDIDGIVYKVNDLILQSRLGSTHKAPRSALAYKFSAVYAKTKLNKIFIQVGRTGVLTPVADLIPVNIGGVLVSRANLHNQDEIKRKDVREGDIVTIKRAGDVIPQIVRVDKGSRHADAPGFVFPEICPECGGKVQAEGAAIRCSEELTCKAQIIGKLSHFVSKGAFDIFGLGEKQIKFFYDLGLIKQIPDIFNLEERLNEFSLKEQPDWGERSIANLLNAIQNRRVITLDRFIFSLGIRFIGQVAAELLANYYVSYNNWYNSMIKLLSNDAEVGVGGVEKKIAKSFSDELVGIDGIGEKVAESLKSFFSKEHNIKMLKDLTDYLQILSVNSNSSNSVLNNKVIVFTGKLLTMSRGEAKVRAKALGAKVSSNLSAKIDYLVAGEKPGNKYKKAVELGVGILNEDQWYRMINSEVSE
notes: full length, 683 residues (ORF 2052 bp), pET28a(+), His6 tags at N and C terminus kept, expressed in E. coli Rosetta, Ni-NTA purified, ~75 kDa
  Km: 4.8 µM
